Read-outs that look alike come from different tables or passages of the source.

The values below come from article PMC2794155.

Data set [1] addresses T1, NHP6A (Saccharomyces cerevisiae RKY3032, UniProt P11632 1-93). As to the kind of experiment: EMSA. For orientation: In EMSA bound probe runs differently from free probe, usually more slowly.
The target of data set [2] is MSH2;MSH6 F337A (Saccharomyces cerevisiae;Saccharomyces …, UniProt P25847;Q03834 1-964;1-1242, |F337A). Nature of the data set: EMSA.
Sequence of MSH2;MSH6 F337A (P25847 whole entry, chain 1 of 2): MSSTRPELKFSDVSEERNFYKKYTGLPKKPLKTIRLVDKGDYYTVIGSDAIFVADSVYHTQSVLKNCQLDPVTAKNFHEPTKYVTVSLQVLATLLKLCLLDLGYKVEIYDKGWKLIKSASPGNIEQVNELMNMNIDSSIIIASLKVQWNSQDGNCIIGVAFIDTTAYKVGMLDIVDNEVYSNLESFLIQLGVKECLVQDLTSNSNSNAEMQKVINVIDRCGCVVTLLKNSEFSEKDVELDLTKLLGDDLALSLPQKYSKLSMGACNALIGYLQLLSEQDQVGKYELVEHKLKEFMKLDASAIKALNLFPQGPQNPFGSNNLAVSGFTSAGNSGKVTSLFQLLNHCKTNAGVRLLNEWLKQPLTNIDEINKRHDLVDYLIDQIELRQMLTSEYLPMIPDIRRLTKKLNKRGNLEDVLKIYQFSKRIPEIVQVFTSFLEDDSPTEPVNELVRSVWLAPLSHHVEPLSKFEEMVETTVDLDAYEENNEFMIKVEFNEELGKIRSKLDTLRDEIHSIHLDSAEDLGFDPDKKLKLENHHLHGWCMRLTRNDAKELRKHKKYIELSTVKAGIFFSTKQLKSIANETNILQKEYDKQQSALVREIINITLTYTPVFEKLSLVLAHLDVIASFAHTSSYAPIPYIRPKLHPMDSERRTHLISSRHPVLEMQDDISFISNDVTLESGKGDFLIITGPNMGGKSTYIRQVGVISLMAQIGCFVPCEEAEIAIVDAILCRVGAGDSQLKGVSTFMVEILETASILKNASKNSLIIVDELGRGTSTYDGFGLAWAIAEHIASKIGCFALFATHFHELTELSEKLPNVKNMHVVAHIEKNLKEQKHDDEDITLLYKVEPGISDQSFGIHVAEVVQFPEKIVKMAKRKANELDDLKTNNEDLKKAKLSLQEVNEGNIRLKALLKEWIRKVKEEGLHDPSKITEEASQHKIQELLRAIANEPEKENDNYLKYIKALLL
Sequence of MSH2;MSH6 F337A (Q03834 whole entry F337A, chain 2 of 2): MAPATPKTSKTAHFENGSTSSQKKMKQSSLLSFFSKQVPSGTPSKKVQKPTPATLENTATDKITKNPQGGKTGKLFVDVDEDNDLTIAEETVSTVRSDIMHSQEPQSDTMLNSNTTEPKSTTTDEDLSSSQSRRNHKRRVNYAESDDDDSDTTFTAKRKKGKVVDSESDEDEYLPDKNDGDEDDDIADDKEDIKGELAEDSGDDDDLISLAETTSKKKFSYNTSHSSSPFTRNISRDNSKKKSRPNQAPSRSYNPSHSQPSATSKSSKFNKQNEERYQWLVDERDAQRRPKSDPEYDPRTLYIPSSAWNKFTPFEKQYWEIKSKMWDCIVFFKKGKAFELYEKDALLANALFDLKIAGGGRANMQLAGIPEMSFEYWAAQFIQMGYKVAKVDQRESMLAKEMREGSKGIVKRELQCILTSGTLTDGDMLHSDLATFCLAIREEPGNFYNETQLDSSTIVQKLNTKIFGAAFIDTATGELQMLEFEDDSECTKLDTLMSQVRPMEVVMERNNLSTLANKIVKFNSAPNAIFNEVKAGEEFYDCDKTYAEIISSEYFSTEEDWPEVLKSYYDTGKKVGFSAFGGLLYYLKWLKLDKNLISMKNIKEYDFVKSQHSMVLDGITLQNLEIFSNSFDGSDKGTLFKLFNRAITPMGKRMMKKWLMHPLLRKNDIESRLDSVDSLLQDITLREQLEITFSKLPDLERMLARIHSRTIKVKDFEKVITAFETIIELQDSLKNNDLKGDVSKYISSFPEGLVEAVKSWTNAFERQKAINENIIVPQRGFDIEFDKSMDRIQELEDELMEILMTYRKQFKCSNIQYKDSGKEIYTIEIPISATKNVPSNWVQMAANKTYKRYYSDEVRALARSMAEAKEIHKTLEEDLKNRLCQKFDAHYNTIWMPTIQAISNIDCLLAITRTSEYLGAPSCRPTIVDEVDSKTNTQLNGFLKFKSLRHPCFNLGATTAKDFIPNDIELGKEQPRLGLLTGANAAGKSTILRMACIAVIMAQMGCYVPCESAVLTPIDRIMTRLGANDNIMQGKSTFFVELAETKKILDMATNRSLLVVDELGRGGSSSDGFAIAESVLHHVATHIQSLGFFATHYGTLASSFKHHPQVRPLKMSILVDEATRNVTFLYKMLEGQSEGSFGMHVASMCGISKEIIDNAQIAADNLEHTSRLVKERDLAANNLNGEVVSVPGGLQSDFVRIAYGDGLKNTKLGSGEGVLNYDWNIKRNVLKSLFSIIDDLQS
Data set [3] has as its target T2, MSH2;MSH6 (Saccharomyces cerevisiae;Saccharomyces …, UniProt P25847;Q03834 1-964;1-1242, |). As to the kind of experiment: EMSA.
Data set [4] deals with T2, MSH2;MSH6. As to the kind of experiment: EMSA. This is another data set of the same source.
Data set [5] has as its target NHP6A;MSH2;MSH6 (Saccharomyces cerevisiae …, UniProt P11632;P25847;Q03834 1-93;1-964;1-1242, ||). As to the kind of experiment: EMSA supershift.
Data set [6] addresses T1, NHP6A. Nature of the data set: EMSA. This is another data set of the same source.

T1 sequence (P11632 whole entry): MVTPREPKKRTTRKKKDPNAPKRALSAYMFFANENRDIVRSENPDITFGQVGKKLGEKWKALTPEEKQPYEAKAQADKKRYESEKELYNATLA
T2 sequence (P25847 whole entry, chain 1 of 2): as the sequence (P25847 whole entry, chain 1 of 2) above
T2 sequence (Q03834 whole entry, chain 2 of 2): as the sequence (Q03834 whole entry F337A, chain 2 of 2) above, with A337F counted along it
Sequence of NHP6A;MSH2;MSH6 (P11632 whole entry, chain 1 of 3): as the sequence (P11632 whole entry) above
Sequence of NHP6A;MSH2;MSH6 (P25847 whole entry, chain 2 of 3): as the sequence (P25847 whole entry, chain 1 of 2) above
Sequence of NHP6A;MSH2;MSH6 (Q03834 whole entry, chain 3 of 3): as the sequence (Q03834 whole entry F337A, chain 2 of 2) above, with A337F counted along it

B1: 50-mer T:A homoduplex (dsDNA)
DNA 1: CTCATTCAGCATAACTTGATTTCTTTCAGCAGATAGAAACCATACTGATT
DNA 2: AATCAGTATGGTTTCTATCTGCTGAAAGAAATCAAGTTATGCTGAATGAG
As to B1, the values for the binding result in data set [1], in data set [2] and in data set [3] were “binds”, “no binding” and “binds”, respectively.

B2: 50-mer T:G heteroduplex (dsDNA)
DNA 1: CTCATTCAGCATAACTTGATTTCTTTCAGCAGATAGAAACCATACTGATT
DNA 2: AATCAGTATGGTTTCTATCTGCTGAAGGAAATCAAGTTATGCTGAATGAG
Turning to B2, the binding result in data set [1], in data set [4] and in data set [5] was “binds” each time.

B3: 37-mer G:C homoduplex (A/T in figures) (dsDNA)
DNA 1: ATTTCCTTCAGCAGATAGGAACCATACTGATTCACAT
DNA 2: ATGTGAATCAGTATGGTTCCTATCTGCTGAAGGAAAT
With B3, in data set [6], the binding result is listed as “binds”.

B4: 37-mer G:T heteroduplex (dsDNA)
DNA 1: ATTTCCTTCAGCAGATAGGAACCATACTGATTCACAT
DNA 2: ATGTGAATCAGTATGGTTTCTATCTGCTGAAGGAAAT
In the case of B4, the binding result in data set [6] is “binds”.
